Here are results for three proteins from PMC5006159, “Structural basis for early-onset neurological disorders caused by mutations in human selenocysteine synthase” (Scientific Reports, 2016).

Data set [1] concerns the molecule itself. Put plainly: SEC; S200 SEC of the soluble, purified His-tagged SepSecS samples; tetramer peak at ~70 min, 'early' peak at ~55 min; self-association.
Data set [2] deals with the molecule itself. Put plainly: crystal structure; binary complexes with human tRNASec, sitting drop at +12 °C, sodium cacodylate, lithium citrate, PEG 3,350; trigonal, two SepSecS dimers and one tRNASec in the asymmetric unit.
Data set [3] deals with the molecule itself. Put plainly: crystal structure; holo T325S, sitting drop at +12 °C, lithium citrate and PEG 3,350; orthorhombic, half of the tetramer in the asymmetric unit.

B1: human O-phosphoseryl-tRNASec:selenocysteinyl-tRNASec synthase (SepSecS), wild type (enzyme)
chain: MNRESFAAGERLVSPAYVRQGCEARRSHEHLIRLLLEKGKCPENGWDESTLELFLHELAIMDSNNFLGNCGVGEREGRVASALVARRHYRFIHGIGRSGDISAVQPKAAGSSLLNKITNSLVLDIIKLAGVHTVANCFVVPMATGMSLTLCFLTLRHKRPKAKYIIWPRIDQKSCFKSMITAGFEPVVIENVLEGDELRTDLKAVEAKVQELGPDCILCIHSTTSCFAPRVPDRLEELAVICANYDIPHIVNNAYGVQSSKCMHLIQQGARVGRIDAFVQSLDKNFMVPVGGAIIAGFNDSFIQEISKMYPGRASASPSLDVLITLLSLGSNGYKKLLKERKEMFSYLSNQIKKLSEAYNERLLHTPHNPISLAMTLKTLDEHRDKAVTQLGSMLFTRQVSGARVVPLGSMQTVSGYTFRGFMSHTNNYPCAYLNAASAIGMKMQDVDLFIKRLDRCLKAVRKERSKESDDNYDKTEDVDIEEMALKLDNVLLDTYQDASS
notes: human SepSecS (SEPSECS) cloned into pQE80 with an N-terminal His-tag; PLP cofactor covalently attached to Lys284; Band at ~60 kDa on SDS-PAGE; also called WT SepSecS; WT; not shown: His6, N-terminal, kept
On to B1, for which, in data set [1], the stoichiometry N (commonly the number of molecules, sites or subunits per partner or assembly) was found to be 4.

B2: human SepSecS Tyr334Cys variant (enzyme)
chain: MNRESFAAGERLVSPAYVRQGCEARRSHEHLIRLLLEKGKCPENGWDESTLELFLHELAIMDSNNFLGNCGVGEREGRVASALVARRHYRFIHGIGRSGDISAVQPKAAGSSLLNKITNSLVLDIIKLAGVHTVANCFVVPMATGMSLTLCFLTLRHKRPKAKYIIWPRIDQKSCFKSMITAGFEPVVIENVLEGDELRTDLKAVEAKVQELGPDCILCIHSTTSCFAPRVPDRLEELAVICANYDIPHIVNNAYGVQSSKCMHLIQQGARVGRIDAFVQSLDKNFMVPVGGAIIAGFNDSFIQEISKMYPGRASASPSLDVLITLLSLGSNGCKKLLKERKEMFSYLSNQIKKLSEAYNERLLHTPHNPISLAMTLKTLDEHRDKAVTQLGSMLFTRQVSGARVVPLGSMQTVSGYTFRGFMSHTNNYPCAYLNAASAIGMKMQDVDLFIKRLDRCLKAVRKERSKESDDNYDKTEDVDIEEMALKLDNVLLDTYQDASS
notes: human SepSecS (SEPSECS) in pQE80 with an N-terminal His-tag, pathogenic variant made by site-directed mutagenesis; Mutation found in patients (PCH2D); also called Y334C; Y334C70; not shown: His6, N-terminal, kept
In the case of B2, the “stoichiometry N” value in data set [2] was determined as 4.

B3: human SepSecS Thr325Ser variant (enzyme)
chain: MNRESFAAGERLVSPAYVRQGCEARRSHEHLIRLLLEKGKCPENGWDESTLELFLHELAIMDSNNFLGNCGVGEREGRVASALVARRHYRFIHGIGRSGDISAVQPKAAGSSLLNKITNSLVLDIIKLAGVHTVANCFVVPMATGMSLTLCFLTLRHKRPKAKYIIWPRIDQKSCFKSMITAGFEPVVIENVLEGDELRTDLKAVEAKVQELGPDCILCIHSTTSCFAPRVPDRLEELAVICANYDIPHIVNNAYGVQSSKCMHLIQQGARVGRIDAFVQSLDKNFMVPVGGAIIAGFNDSFIQEISKMYPGRASASPSLDVLISLLSLGSNGYKKLLKERKEMFSYLSNQIKKLSEAYNERLLHTPHNPISLAMTLKTLDEHRDKAVTQLGSMLFTRQVSGARVVPLGSMQTVSGYTFRGFMSHTNNYPCAYLNAASAIGMKMQDVDLFIKRLDRCLKAVRKERSKESDDNYDKTEDVDIEEMALKLDNVLLDTYQDASS
notes: human SepSecS (SEPSECS) in pQE80 with an N-terminal His-tag, pathogenic variant made by site-directed mutagenesis; Mutation found in patients (PCH2D); also called T325S; T325S70; source: E. coli SoluBL21(DE3), purified from the soluble fraction, S200 SEC (70 min and 55 min peaks); not shown: His6, N-terminal, kept
In the case of B3, the “stoichiometry N” value in data set [3] was 4.
